In data set [1] the target is T1, PfTET3 (TET3 aminopeptidase; PfTET3Zn) (Pyrococcus furiosus, UniProt Q8TZW4).
T1 construct: gene PF1861; Recombinant, pET-41c; purified as for PhTET3; homododecamer (about 500 kDa); as purified contains two Zn2+ per active site
T1 sequence (Q8TZW4 1-346): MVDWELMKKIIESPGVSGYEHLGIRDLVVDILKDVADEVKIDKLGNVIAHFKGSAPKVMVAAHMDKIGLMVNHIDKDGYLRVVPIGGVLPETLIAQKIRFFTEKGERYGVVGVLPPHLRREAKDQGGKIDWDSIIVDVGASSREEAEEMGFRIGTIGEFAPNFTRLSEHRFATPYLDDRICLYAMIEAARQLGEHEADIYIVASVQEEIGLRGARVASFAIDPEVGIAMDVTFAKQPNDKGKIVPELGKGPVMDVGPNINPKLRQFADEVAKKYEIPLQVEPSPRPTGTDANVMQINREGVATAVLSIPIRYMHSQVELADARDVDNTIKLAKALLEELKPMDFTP
Description: Lys-pNA hydrolysis, pNA release at […] nm, EDTA titration, biphasic fit. In kind it is biochemical. The conditions noted are these: 85 °C; 5 mM Lys-pNA; 0.1 M HEPES pH 7.2, 316 mM KCl; 10 nM enzyme; metal chelation (M1 Zn2+ removal), not direct binding; first site of two; partial step; read-out: EC50_1.

Data set [2] has as its target Glu207 (UniProt position 207, VASVQEEIGLR). The experiment in a line: kinetics. The conditions noted are these: not given for the pH series (standard assay: KCl 316 mM), not given for the pH series (standard assay: 0.1 M HEPES pH 7.2).

For two compounds, EC50 and pKa results are on record in PMC4745047, “Tuned by metals: the TET peptidase activity is controlled by 3 metal binding sites” (Scientific Reports, 2016).

As for `O=C(O)CN(CCN(CC(=O)O)CC(=O)O)CC(=O)O` [EDTA], the EC50 in data set [1] was found to be 13 µM.

As for “TET3 aminopeptidase (PfTET3; lysine-specific tetrahedral aminopeptidase) (Pyrococcus furiosus)”, the pKa in data set [2] (20 °C, PfTET3Co: 300 uM Co2+ present (Co2+ in M1 and M3, Zn2+ in M2)) worked out at 5.6; in data set [2] (20 °C, PfTET3Zn: as purified, Zn2+ in M1 and M2, no Co2+ added), 5.9; in data set [2] (85 °C, PfTET3Co: 300 uM Co2+ present (Co2+ in M1 and M3, Zn2+ in M2)), 4.45; in data set [2] (85 °C, PfTET3Zn: as purified, Zn2+ in M1 and M2, no Co2+ added), 4.75.

The pKa is the pH at which an ionisable group is half protonated.
